Assay results from a protein production outcome set (Wang et al. 2014).

Assay: label from the status in PepcDB records
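Note: failed if final PepcDB status was selected cloned or expressed and not failed if soluble or beyond.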

Row | Sequence | protein production
1 | MQIFLLFLSFAKAIHKIILIYGETAFPTVCSALQIYSLMKLKTLICATTAFWACCSCTSGELSPVDYVDPFIGTGFHGHTYPGATVPFGAVQLSPDTRAGNWDACSGYHYNDTTLKGFSHTHLSGTGCIDLGDILFRPTTLKPDLTTESIYQPAAFSHKDEDASAGYYSVVLKEEGIKAELTVTAHAGMHRYTFSSGKEASIIIDLTHLLDNEYIYEAELEQTAANEITGMRRTRGWTDNQYVYFVAQFSKPFQAIDFIQNKKMVSAGVKLNGTDLQACLSFDNSNGEPVIAKVGLSIVSEKNARENLETEVIGFDFDAVRSAARSAWEQALSAITVKGGNTDDLKNFYTAMYHSMVVPNVVSDVNGEYRRHNMEIGQLPKGKVQYSTFSLWDTFRAWNPLMTLIDTTLVNNMINSFLDIYESSGELPIWPLSAGETGTMIGYHAVSVIADAYMKGIRGFDAEKALEAMVVSSEKNKKGADYYIQNGFIPSNIKKESISCLLEFAYDDWCIARMAQEMGKDDIYQKYIQRSQNYINVFDGNTKFFRPKRMDGNWETPFNPIEIGRAYTEATAWQYRFFVPHDVSGMAQLFGGKKEFITALDSIFTVESDVHGDLVDITGLIGQYVHGNEPSHHIAYLYDYVGQPWKTQEMTRRLLHEMYAPTPEGIIGNEDCGQMSGWYILSSLGIYSVCPGSNEFALTTPLFEKAVVNLANRKTLTILANNPKKNVYITKVELNGQPIDVNFITYAQLMEGGELRFTLSDKPNMERGVSSEASPYSYTKDEVVSIPYVDKDLNLFMDKVTVALATTTKDAEIRYTLDGSEPTEQSALYEQPFELDKTTLIKAKGFKEGLRSSRTLSISATKAELKAALSVNPTQNGTSYKYFEGTYQKVADVEKSPLLESGVMPEPSIKGAKQEDHFGYIFSGLINVPEDGVYTFQTRSDDGSVLYIHDEQVVNNDASHAAIPATGMVALKKGFHPYKLYYFEDYEGEYLSWAWKLPSAEKLAPIPASALFVK | failed
2 | MMTGRKRGMIMSRRIITIGRQYGSNGRRIAKKLSEKLGIHYYDKELIKLASEQNDISYDELVKVDEKRANPWRYPVEDPAQMESRFRFEPMNDVLFYTQAQIITRLADTEDCIIVGRCANDILKSRPTSRSIFIHAPLDYRLQTVMERTSLEEKEALSLIKKVDKQRKFYYNYYTDKKWEEMSQYDLCLDSSAMSEDEILNVLTALYESIL | failed
3 | MGKTKRYWLLKTEPNEWSWSDQESNGGISKWDGVKNKQAQKNLKSMTLGDLCFFYHSGTKSRCVVGVVEVSREWYTDDAEGVEGEGAVDVKAIGEMRKCVDLKEMKGDKGIITKGFVLFRQPRLSVVPVEEDVWNMICELGNGFCGDGKEDCESSDDE | failed
4 | MRARRRVMAKREALRAGSKASRQATPNSQPELEGKLFAEQDAGERTHEKLVFVPRVDIYETETGLVVVADLPGVGPEGLEVTLEKRVLSIYGRVKEDTPEGYSQAYREYEVGDFERQFTLSGDFEINGIEANIKDGVLHLAIPRAPEAAAKRIEVRSVS | failed
5 | MVHHDGTLQALITAYQKTPAFTDLAEATRKGYIRHIRQIEADFGDMPVQALADPRVRGEFLDWRDRLAQKSKRSADYAFSVLARILSWAHDRRKIPVNPCEKPGRLEHHHHHH | failed
6 | MSNVCIVYSSTHHGNTEKVLNKIKEKFPETVLIKAGDFNPDDFNRYEAIGFASGIFYFKFAKPVDKLFEQALVGSVQKLFFIYTAGAVNAGFEKTLRKKTEQSGKICMGIFGCKGFDTFGPLKLIGGLNKNSPNEKDFKNAIDFFEKNIINALEHHHHHH | not failed
7 | MVVMIKLRDELGTATTDSAQKILLLGSGELGKEIAIEAQRLGVEVVAVDRYANAPAMQVAHRSYVGNMMDKDFLWSVVEREKPDAIIPEIEAINLDALFEFEKDGYFVVPNARATWIAMHRERLRETLVKEAKVPTSRYMYATTLDELYEACEKIGYPCHTKAIMSSSGKGSYFVKGPEDIPKAWEEAKTKARGSAEKIIVEEHIDFDVEVTELAVRHFDENGEIVTTFPKPVGHYQIDGDYHASWQPAEISEKAEREVYRIAKRITDVLGGLGIFGVEMFVKGDKVWANEVSPRPHDTGMVTLASHPPGFSEFALHLRAVLGLPIPGEWVDGYRLFPMLIPAATHVIKAKVSGYSPRFRGLVKALSVPNATVRLFGKPEAYVGRRLGIALAWDKDVEVAKRKAEMVAHMIELRTRSSDWHDQNYEKRKHLLR | not failed
8 | MSLPANKLVFVGGMGAGKTTAVRSISDVEPVSTEMPLSQDAYGDKTYTTVALDYSSIELEDGELLHVYGVPGQKYLDFMWPLVCDGALGVIVLTNARDPQMLTATLELLREFSQIAPEASLAVGITMTDEVEDFLVPPFREALVAEGFRVPVMRVDARSATQITFLVKSLLSYRYTSATSLEHHHHHH | not failed
9 | MSEDLMDLSPEEGIERFLRHREPSVRESTMRNAKTRLRFFNEWCEERDIENLNNLTGRDLADFVAWRRGDIAALTLQKQLSTIREALRYWADIEGVDDGLAEKVHAPELEHHHHHH | failed
10 | MVRNSMKAEYDIDHLPHQTFYGDYSKTLVPMNKNSQIITKIKPKIRIIHIFAPEIINTDVKNFRTLVQSLTGKPEITKTGSKKKITNTNFPAPPGLPQDSGQEHTAELDNRIIGSHVVKEEWGSSSNTNTYFDFDGLIDLDEDDNIFSSRWFDLQQQ | failed
11 | MHSQTLRLASYNIQKCVGLDLRRQPRRILQVLDAMGARIAVLQEADKRLPPRPAALPHFVLEEAGWQVVDLGGAGSLGWHGNAVIWKGAGITQLASAHHDLPGFEPRGAVRVEFDTPIGPLRVLGLHLGLLPASRRDQIVHLAHDLERLPPMPTVWAGDFNEWSRQPVLDHLAPMLRFLPARPSFPAPRPLGALDRIAHSPELSAVAHGVFAERPAPIASDHLPVWADLTRPV | failed
12 | MPNPRRIVFGDVHGHFDALTALFEAIAPNERDGVYFVGDLIDRGPESAKVVDFVMENKYHCLLGNHEQMMLDAVGGFNFSPQLLHAWIYSGGKSTLESYEHQIPQSHVDWMRNLPLYLDLGDVWLVHAGVDPRLPIEEQGEAQFCWIRDEFHRYPYPYFANKLIITGHTITFTFANVEPGKLVSGPGWLDIDTGAYHPKSGWLTALELNNQEVYQAHIFTNEVRRLPLEDAVVPLPPQNLHRLEHHHHHH | failed
13 | MMVPHLTTALTGPLLTLEKRLLDNMPRIEHWFRSQWQEYGAPFYASVDLRNAGFKLAPVDTNLFPGGFNNLNPDFLPLCIQAAMVAVEKICPDARRLLLIPENHTRNTFYLRNVHALTHILRQAGLEVRIGSIAPEITAPTFLETHDGHSILLEPVRRKANRLELDNFDSCAILLNNDLSGGIPDILQGLEQSLIPPLHAGWATRRKSNHFTAYDRVVEEFAPLIDIDPWLLNPYFDTCGGLDFHARLGEEQLAEKVDSLLAKIRRKYAEYGVKQEPFVIVKADAGTYGMGIMTVKSADDVRDLNRKQRNKMSVVKEGLKVSEVILQEGVYTFEHLKDAVAEPVIYMMDHFVVGGFYRVHTSRGADENLNAPGMHFEPLTFETPCSTPDCAGAPDAAPNRFYAYGVVARLALLAATIELQETDPDLLDERT | not failed
14 | MFLFSLTLGVYCSSWTFYGATGAAVREGVIFLPIYLGPLLFVWFGYDIWRRLGRVRQHHAISSIADFVAARYGKSGVLASLVTILAVIAIIPYLALQLRAIALSTSVIMEQSSHIHTTTNSVLLLTSVLAILAMIFGTRQIANTEQHGGLMLAVAFESFVKLFALLCVALFFIFESPANLSQMTSDVNQTFQEVQLFGVPETFWIQTLLAGLAIICLPRQFHVAVVELRDEKHIRGARKWFAVYLILTILAIIPIASWALHAAPKFLTVPDVAVLSLPLSYNQEWLALLAFLGGFSASTGMLLVSSVALSIMLSNDLIMPALWRFKLLSRHDKHLPKVLKFSRRISIVAVMLLGFLFFHFFNDINQLSVFGLLAFSAVAQFAPALIGGLYWRGGSRQGVYAGLIIGFLMWSYTLLFPTILRSLPEAYQETAQSILLFGPFGINALRPESLFGFESFAPLTHGVIWSLGLNIVLYIWISKIYRPSVAEQIQAESFFYYETKPLPSPHTSTDLTYLPHDAARLKVGDLFALAKRITGEQPTTQAFENFCEQNHLTLNPNSIANGMWWRFTEQYLAGIIGAASARTLLTTAMINNGLALGQVANILDQASQWQRFNQNLLMTMIDHMTQGVSVVDKNMCLVAWNNQYLKLFGYPKDLVYVGCPIADLIRYNAERGECGPGSVEEHVRKRLHWMKVGSAHEFERIRKDGRVIQMRGNPIAGGGFVTTFADITAFRANEAVLEARVKDRTQQLADALTEQQLAREQADMANMSKSRFIAAASHDLLQPMHAARLFSTVLEQSISTEEDRQTLQQLDRALYGAESMLSALLDIARLEGGTIQPKRQPYPLHDLLSDLELQFKSIAAQRNISLKVHDVSFWIDTDPQWIRRIIQNFVSNALRYTAKGRVVVGVLRSAQQSGHIRIGVWDTGPGIAEEQRIKLFQEFERCGHLSPWGEQGLGLGLAIVQRMTGLLNYPVHVYSELGKGSCFMIEVPIVEPPKVATPAVQAVPLKTKAYRILCLDNDETILEGMSSLLGRWGYQVFKATEPEQALEIIQKENIQVWLIDQHLNHNQLGVDFITQNRQEDVPVALITADSHPELPQQLKELNIVLLKKPLKPASLRAWLSGLKIASTTD | failed
15 | MKVLVIGNGGREHALAWKAAQSPLVETVFVAPGNAGTALEPALQNVAIGVTDIPALLDFAQNEKIDLTIVGPEAPLVKGVVDTFRAAGLKIFGPTAGAAQLEGSKAFTKDFLARHKIPTAEYQNFTEVEPALAYLREKGAPIVIKADGLAAGKGVIVAMTLEEAEAAVHDMLAGNAFGDAGHRIVIEEFLDGEEASFIVMVDGEHVLPMATSQDHKRVGDKDTGPNTGGMGAYSPAPVVTDDVHQRTMERIIWPTVKGMAAEGNTYTGFLYAGLMIDKQGNPKVIEFNCRFGDPETQPIMLRMKSDLVELCLAACESKLDEKTSEWDERASLGVVMAAGGYPGDYRTGDVIHGLPLEEVAGGKVFHAGTKLADDEQVVTNGGRVLCVTALGHTVAEAQKRAYALMTDIHWDDCFCRKDIGWRAIEREQN | failed
16 | MVREGFDVTLVEARERGGLETSYANGGQLSYRYVAPLADSGVPAQALGWLLRNDAPLRLRPRLDPAQWRWLLGFLAACRGSLNRRNAAHLLRLALLSQRTLQDWREEDGLDGFDWRRNGKLVAFRQPASFARARQGLADPSAQFVLTAAECLALEPALSAAPFVGGIHTPDEEVADCHAFCVQLAERLQASGHCRQLHGRRVTKIVEGGAAVRGVEVGGDLIEADHVVLAAGYRSAELMLPGLRLPLYPLKGYSLTLPVGAQHRAPDTSITDYDRKIVYARIGERLRIAAMVDIVGFDPGLEPARLALLRQQARDTFPQGGDFDAAVEWAGMRPATPTGVPLVGNGGYRNLWLNLGHGALGFTLACGSGRLLAEQIGRRPPSIDTTGLLPRGALAG | failed
17 | PSHSLQAPEVRFSKEMECLQAMGFVNYNANLQALIATDGDTNAAIYKLKSSQGF | not failed
18 | GWKVEYMAIADPQTIDQTPIVIVGGAFQNFNSYKYCVEQLFHCGPVILIDLPSMGANQQITNRDSGVSAAVLELPDLAKILVEWLDIIKIQKISMMGMSLGSVVASCFADLRPDMIDRLVLMGVMQKTRKSWRMILEESLKLMQENRMEEFGQAVILYLVNHAKLDQTRMSPTAKRLFFRQMAEFNPTERLRYEINCQRLLRLKDVPIPQCKTLVAAGQYDSFTLPFENANFALQCPDVEFALIANADHVPQLQRRKETMRLFETFLNH | failed
19 | MGLSHKFQVKQFVEISPYSQSRLRHEQPQTPIHSDITTYHCHRGQFDIVAGGLPCQGTSNAGNRQGLDDPRSALWAEQFRIIESDRPAIALIENPTGLLYRGLEQIICDLDSIGYMGEWNCISAQQVGLPHQRKRIFIIAYSNGLFNQVVPAPWSNQIGNHITQVRLSLETRSYQPGISKVASRIPIGVAKNIPGNYDARRAYGLSCSPRQAAVAWKRIDYLCSLLEHHHHHH | failed
